Experimental findings from publication doi:10.1101/726224 (bioRxiv, 2019) are described below.

For this experiment, the target named is Cyclin B1^165-433 (isolated) (UniProt P14635 165-433). Put plainly: SEC. A general note: In gel filtration, larger molecules generally elute earlier.
Chain of Cyclin B1^165-433 (isolated) (P14635 165-433): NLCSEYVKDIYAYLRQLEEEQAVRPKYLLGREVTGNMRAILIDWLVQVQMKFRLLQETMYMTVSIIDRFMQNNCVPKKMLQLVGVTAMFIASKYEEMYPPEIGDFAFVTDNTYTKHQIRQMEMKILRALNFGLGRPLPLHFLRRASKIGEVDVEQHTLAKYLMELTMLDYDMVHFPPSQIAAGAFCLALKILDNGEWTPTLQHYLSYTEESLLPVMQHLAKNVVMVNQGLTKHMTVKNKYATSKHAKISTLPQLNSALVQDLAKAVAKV

B1: MBP-MAD1^41-62 (domain or fragment)
chain: LQMQYQQSMQLEERAEQIRSKS
On to B1, for which the binding result is given as “binds”.
